Data: patent US20080241162A1 (GENERAL ANTIBODIES AND BIOTECHNOLOGIES S R L, published 2008)

B1: human recombinant Fab e509 (Fab, V domains shown)
VH: LLEESGAEVKKPGSSVKVSCKTSGDTFRYGITWVRQAPGQGLEWMGQIMPTFATATYAQRFQGRVTISADESTSTAYLEVRSLRSEDTAVYYCATPRQVTILRGPKALSPWDYWGQGT
VL: not shown
B2: human recombinant Fab e8 (Fab, V domains shown)
VH: LLEQSGAEVKMPGATVKVSCQSSRYTFTSYGIGWVRQAPGQGLEWMGWISGYTHETKYAQSFQGRVTMTAETSTGTAYMELRSLRSDDTATYYCARDGGGRVVVPPTHLRAFDVWGQGT
VL: MAELTQSPGTLSLSPGERATLSCRASHRVNNNFLAWYQQKPGQAPRLLISGASTRATGIPDRFSGSGSGTDFTLTISRLEPDDFAVYYCQQYGDSPLYSFGQGT
B3: human recombinant Fab e137 (Fab, V domains shown)
VH: LLEQSGSEVKVPGSSLKVSCKTSGGTFSTYTFSWVRQAPGQGLEWMGGITPIIGIANYARNFQDRVTITADESTSTVYMEVRRLRSEDTAVYYCAKTSEVTATRGRTFFYSAMDVWGQGT
VL: MAELTQSPSFLSASVGDRVTITCRASQGISNYLAWYQQKPGKAPKLLIYAASTLQSGVPSRFSGSGSWTEFTLTISRLQPEDFATYYCQHLNTYPWTFGQGT
B4: human recombinant Fab e20 (Fab, V domains shown)
VH: LLEQSGAEVKKPGSSVKVSCKASGDHYGINWVRQAPGQGLEWMGGIIPVFGTTTYAQKFQGRATITADDSTGTAFLELTRLTFDDTAVYFCATPHQLHVLRGGKALSPWDYWGQGT
VL: MAELTQSPATLSVSPGERATLSCRASQSVSSNLAWYQQKRGQAPSLLIYGTSTRATGIPARFSGSGSGTEFTLTISSLQSEDFAVYYCQQYNDWPSTFGQGT
B5: human recombinant Fab e301 (Fab, V domains shown)
VH: LLEQSGSEVKKPGSSVRVSCTTSGGTLSDYGFNWLRQAPGQGPEWMGGIIPLFRRTTYGQKFQGRLTITADESTGATYMELSSLRSDDTAVYYCAREKVSVLTGGKSLHYFEYWGKGT
VL: MAELTQSPATLSVSPGERATLSCRASQSVSSRLAWYQQKRGQAPSLLIYDTSSRATGVPARFSASGSGTQFTLTISSLQSEDFALYYCQQYNDWPSTFGQGT

Target: purified recombinant HCV/E2 of 1a genotype (strain H) expressed in CHO cells (Hepatitis C virus genotype 1a (strain H), UniProt P27958 388-664)
Sequence (P27958 388-664 limits assumed): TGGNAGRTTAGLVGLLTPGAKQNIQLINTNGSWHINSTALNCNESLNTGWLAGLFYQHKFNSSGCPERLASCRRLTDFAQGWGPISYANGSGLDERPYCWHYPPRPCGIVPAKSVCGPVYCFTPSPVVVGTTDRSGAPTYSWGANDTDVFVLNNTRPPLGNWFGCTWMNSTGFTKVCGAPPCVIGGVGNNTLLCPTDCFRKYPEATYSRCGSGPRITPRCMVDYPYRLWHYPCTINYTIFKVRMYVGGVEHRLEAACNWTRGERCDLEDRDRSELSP

Compared with B1, B2 is higher in IC50: under 0.035 µg/mL for the first, over 40 µg/mL for the second.

Compared with B3, B4 is 13-fold lower in IC50: 40 µg/mL for the first, 3 µg/mL for the second.

For B5, the IC50 was 3 µg/mL.
